Test results published in patent publication US8835379B2, “Derivatives of CGRP” (Novo Nordisk A/S, priority 2009, dated 2014).
*1 amine or outer side, *2 acyl side, *3 side chain or, on linkers, in order; H or OH if unused. Bridges are numbered along the chain shown (N, C = ends). Where no end group is shown, it is not given here. Side-chain parts run from the residue outwards. The star is where a group is joined. C18 diacid = O=C(O)CCCCCCCCCCCCCCCCC(=O)*; γGlu = O=C(O)[C@H](CCC(=O)[*:2])N[*:1]; AEEA = NCCOCCOCC(=O)O

Columns and labels:
[1] = molecular target: CGRP receptor (calcitonin receptor-like receptor (CRLR), receptor activity modifying protein-1 (RAMP1)) (Homo sapiens, UniProt O60894+Q16602); test: CGRP-induced cAMP accumulation in CGRP receptor expressing cells (CHO, CRE luciferase reporter); assay type: cell-based; settings: crude SPOT-synthesised peptides, photo-cleaved, in DMSO; CGRP-1-luc cell line
CGRP receptor (calcitonin receptor-like receptor (CRLR), receptor activity modifying protein-1 (RAMP1)), sequence (Q16602 23-461, species assumed): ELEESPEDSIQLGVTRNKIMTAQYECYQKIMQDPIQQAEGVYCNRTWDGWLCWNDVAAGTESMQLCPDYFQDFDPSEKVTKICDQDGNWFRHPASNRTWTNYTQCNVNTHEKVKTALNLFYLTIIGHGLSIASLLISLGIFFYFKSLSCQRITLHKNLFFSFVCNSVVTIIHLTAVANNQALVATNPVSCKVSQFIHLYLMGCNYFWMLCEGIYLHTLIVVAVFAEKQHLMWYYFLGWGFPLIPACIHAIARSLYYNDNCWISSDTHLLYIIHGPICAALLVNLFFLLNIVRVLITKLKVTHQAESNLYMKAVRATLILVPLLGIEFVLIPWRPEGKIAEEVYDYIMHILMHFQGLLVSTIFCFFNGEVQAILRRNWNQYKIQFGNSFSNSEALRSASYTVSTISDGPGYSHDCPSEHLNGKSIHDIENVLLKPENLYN
CGRP receptor (calcitonin receptor-like receptor (CRLR), receptor activity modifying protein-1 (RAMP1)), sequence (O60894 27-148, species assumed): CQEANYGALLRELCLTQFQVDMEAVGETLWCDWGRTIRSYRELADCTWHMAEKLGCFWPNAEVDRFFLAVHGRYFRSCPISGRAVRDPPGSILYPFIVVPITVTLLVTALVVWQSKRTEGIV
Experimental: Chinese hamster ovary (CHO) cells were stably transfected with calcitonin receptor-like receptor (CRLR), receptor activity modifying protein-1 (RAMP1) and CRE luciferase (cAMP responsive element for control of luciferase gene expression). Luciferase is a reporter-gene reporting accumulation of intracellular cAMP).
Cells were cultured in F12 media supplemented with GlutaMAX™ (Gibco cat no 31765-027), FBS (10%, Gibco 16140-071), Penicillin-streptomycin (1%, Lonza DE-17-602E), G418 (400 μg/ml, Gibco 10131-027), Blasticidine (10 μg/ml, Corning cat no 15205), Hygromycin (400 μg/ml, Calbiochem cat no 400052).
Cells were seeded in a 96 well plate (Packard #6005180), 20000 cells/well in 100 μl media on the day before experimentation. On the day of experimentation media was replaced by assay medium (Dulbecco's media w/o phenol red (Gibco cat no 11880-028) supplemented with 10% FBS (10%, Gibco 16140-071), Hepes (10 mM, Gibco cat no 15630), GlutaMAX™ (2 mM, Gibco cat no 35050), 50 μl/well.
Peptides were diluted in assay media before added to cells for stimulation, 50 μl/well.
Cells were incubated 5% CO2, 37° C. for 4 hours.
Assay medium and peptides were replaced by phosphate buffered saline (PBS, Gibco cat no 14040-091), 100 μl/well and LucLite™ (PerkinElmer, cat no 6076759), 100 μl/well were added. The plate was sealed before incubation for 30 min at room temperature (21° C.). Luciferase activity (luminescens, 7 s/well) was measured (TopCount®, NXT, Packard).
Dose-response curves were fitted by use of GraphPad Prism software and pEC50 values were calculated. Data were given as mean±SEM, n=2 and each analogue was tested twice.

[2] = molecular target: CGRP receptor: calcitonin receptor-like receptor (CRLR) with receptor activity modifying protein-1 (RAMP1), stably transfected in Chinese hamster ovary (CHO) cells together with CRE luciferase; test: cell-based or functional assay

| Molecule | pEC50-ratio relative to human alpha-CGRP, measured by the CGRP-induced cAMP accumulation in CGRP receptor expressing cells [1] | pEC50-ratio relative to human alpha-CGRP [2] | other results |
| --- | --- | --- | --- |
| ACDTATCVTHRLAGLLSRSGGVVKNNFVPTXVGSKAF (ACDTATCVTHRLAGLLSRSGGVVKNNFVPTK([AEEA-AEEA-γGlu-C18 diacid])VGSKAF; disulfide 2-7; ends not checked) [Acylation Position 31, human alpha CGRP, position 31 replaced by X, the acylated L-lysine; Cys2-Cys7 disulfide] | 0.44 | – | – |
| ACDTATCVTHRLAGLLSRSGGVVKNNFVXTNVGSKAF (ACDTATCVTHRLAGLLSRSGGVVKNNFVK([AEEA-AEEA-γGlu-C18 diacid])TNVGSKAF; disulfide 2-7; ends not checked) [Acylation Position 29, human alpha CGRP, position 29 replaced by X, the acylated L-lysine; Cys2-Cys7 disulfide] | 0.41 | – | – |
| ACDTATCVTHRLAGLLSRSGGVVKNNFXPTNVGSKAF (ACDTATCVTHRLAGLLSRSGGVVKNNFK([AEEA-AEEA-γGlu-C18 diacid])PTNVGSKAF; disulfide 2-7; ends not checked) [Acylation Position 28, human alpha CGRP, position 28 replaced by X, the C18 diacid-gamma-Glu-OEG-OEG acylated L-lysine; Cys2-Cys7 disulfide] | 0.62 | – | – |
| ACDTATCVTHRLAGLLSRSGGVVKNXFVPTNVGSKAF (ACDTATCVTHRLAGLLSRSGGVVKNK([AEEA-AEEA-γGlu-C18 diacid])FVPTNVGSKAF; disulfide 2-7; ends not checked) [Acylation Position 26, human alpha CGRP, position 26 replaced by X, the acylated L-lysine; Cys2-Cys7 disulfide] | 0.38 | – | – |
| ACDTATCVTHRLAGLLSRSGGVVKXNFVPTNVGSKAF (ACDTATCVTHRLAGLLSRSGGVVKKNFVPTNVGSKAF; cyclised or stapled) [Acylation Position 25, human alpha CGRP, position 25 replaced by X, the acylated L-lysine; Cys2-Cys7 disulfide] | 0.23 | – | – |
| ACDTATCVTHXLAGLLSRSGGVVKNNFVPTNVGSKAF (ACDTATCVTHK([AEEA-AEEA-γGlu-C18 diacid])LAGLLSRSGGVVKNNFVPTNVGSKAF; disulfide 2-7; ends not checked) [Acylation Position 11, human alpha CGRP, position 11 replaced by X, the acylated L-lysine; Cys2-Cys7 disulfide] | 0.28 | – | – |
| ACDXATCVTHRLAGLLSRSGGVVKNNFVPTNVGSKAF (ACDK([AEEA-AEEA-γGlu-C18 diacid])ATCVTHRLAGLLSRSGGVVKNNFVPTNVGSKAF; disulfide 2-7; ends not checked) [Acylation Position 4, human alpha CGRP, position 4 replaced by X, the acylated L-lysine; Cys2-Cys7 disulfide] | 0.15 | – | – |
| rat CGRP-beta (from UniProt P10093 89-125) (peptide) | – | – | EC50, pM (in vitro potency; CGRP-induced cAMP accumulation in CGRP receptor expressing cells, CRE luciferase) [2]: 9 pM |
| SCNTATCVTHRLAGLLSRSGGVVKDNFVPTNVGSEAF (peptide, UniProt P01256 83-119, looked up, disulfide 2-7; ends not checked) [rat CGRP-alpha] | – | – | EC50, pM (in vitro potency; CGRP-induced cAMP accumulation in CGRP receptor expressing cells, CRE luciferase) [2]: 5 pM |
| ACDTATCVTHK([AEEA-AEEA-γGlu-C18 diacid])LAGLLSRSGGVVKNNFVPTNVGSKAF (disulfide 2-7; ends not checked) [human alpha-CGRP acylated at position 11] | – | 0.28 | – |
| ACDTATCVTHRLAGLLSRSGGVVKKNFVPTNVGSKAF (position 25 (printed X) = N-ε-{2-(2-{2-[2-(2-{2-[4-carboxy-4-(17-carboxyheptadecanoylamino)butyrylamino]ethoxy}ethoxy)-acetylamino]ethoxy}ethoxy)acetyl})-L-lysine; Cys2 and Cys7 are cyclised with a disulfide bond) [human alpha-CGRP acylated at position 25] | – | 0.23 | – |
| ACDK([AEEA-AEEA-γGlu-C18 diacid])ATCVTHRLAGLLSRSGGVVKNNFVPTNVGSKAF (disulfide 2-7; ends not checked) [human alpha-CGRP acylated at position 4] | – | 0.15 | – |
| ACK([AEEA-AEEA-γGlu-C18 diacid])TATCVTHRLAGLLSRSGGVVKNNFVPTNVGSKAF (disulfide 2-7; ends not checked) [human alpha-CGRP acylated at position 3] | – | 0.14 | – |
| ACDTATCVTHRLAGLLSRSGGVVKNNFK([AEEA-AEEA-γGlu-C18 diacid])PTNVGSKAF (disulfide 2-7; ends not checked) [human alpha-CGRP acylated at position 28] | – | 0.62 | – |
| ACDTATCVTHRLAGLLSRSGGVVKNNFVPTK([AEEA-AEEA-γGlu-C18 diacid])VGSKAF (disulfide 2-7; ends not checked) [human alpha-CGRP acylated at position 31] | – | 0.44 | – |
| ACDTATCVTHRLAGLLSRSGGVVKNNFVK([AEEA-AEEA-γGlu-C18 diacid])TNVGSKAF (disulfide 2-7; ends not checked) [human alpha-CGRP acylated at position 29] | – | 0.41 | – |
| ACDTATCVTHRLAGLLSRSGGVVKNK([AEEA-AEEA-γGlu-C18 diacid])FVPTNVGSKAF (disulfide 2-7; ends not checked) [human alpha-CGRP acylated at position 26] | – | 0.38 | – |
